From paper PMC7677505 come the findings set out here.

The target of experiment [1] is Endogenous BAFF (human (endogenous in serum, CSF, cord blood)). Put plainly: SEC; 8-fold concentrated pool of CSF of multiple sclerosis patients at pH 8.2, 30 mM NaCl; also after depletion on anti-APRIL mAb 104; ELISA with capture at pH 5.5 and BAFFR:Fas reporter cells. For orientation: Size exclusion chromatography separates by hydrodynamic size, large species first.

For experiment [2] the target is unchanged. Put plainly: SEC; cord blood sera in Hepes pH 8.2, 30 mM NaCl, 10 ug/ml BSA; fractions lyophilized; ELISA at pH 5.5 and BAFFR:Fas reporter cells with antibody 2.81.
For experiment [3] the target is unchanged. The experiment in a line: SEC; endogenous BAFF affinity-purified on atacicept from CSF or from serum of a CVID patient, SEC at pH 8.2; ELISA with capture at pH 5.5 and BAFFR:Fas reporter cells.
For experiment [4] the target is unchanged. The experiment in a line: SEC; adult human sera (normal, CVID, BAFFR-deficient, BTK-deficient) in Hepes pH 8.2, 30 mM NaCl, 10 ug/ml BSA; fractions lyophilized; ELISA at pH 5.5 and BAFFR:Fas reporter cells with antibody 2.81.
The target is the same in experiment [5]. Put plainly: SEC; BAFFR-deficient human serum on Superdex S200 Increase in Hepes buffer pH 8.2; BAFF activity of fractions read on BCMA:Fas reporter cells; fractions 15-17 pooled, concentrated and run again.

Broadly, the stoichiometry N is a count of units in the complex or per binding partner. Take Endogenous BAFF (ligand): the stoichiometry N came to 3 in experiment [1]; 3 in experiment [2]; 3 in experiment [3]; 3 in experiment [4]; 2.7 in experiment [5].
